# Source: patent US20230322908A1 (AC IMMUNE, published 2023)
# Positions count from the first letter of the chain named.
# B1: ACI-7069-636E5-Ab1 (antibody, mouse IgG2b, V domains shown)
# VH: EVHLVESGGDLVMPGGSLKLSCAASGFTFSNYGMSWVRQTPDKRLEWVATISSGGKYINYLDSLKGRFTISRDNAKNTLYLQMSSLKSEDTAMYYCAKDYGSGWAWFAYWGQGTLVTVSA
# VL: QLVLTQSSSASFSLGASAKLTCTLSSQHSTYTIEWYQQQPLKPPKYVMELKKDGSHSTGDGIPDRFSGSSSGADRYLSISNIQPEDEAIYICGVGDTIKEQFVYVFGGGTKVTVL
# notes: Mouse IgG2b, lambda, from hybridoma; also called 636E5B8
# B2: ACI-7069-631B2-Ab1 (antibody, mouse IgG1, V domains shown)
# VH: EVQLQQSGPELVKPGASVKISCKTSGYTFTEYSIHWVKQSHGESLEWIGGINPDNGGTRYNQKFKGKATLTVDKSSSTAYMDLRSLTSEDSAVYYCARESWGQGTTLTVSS
# VL: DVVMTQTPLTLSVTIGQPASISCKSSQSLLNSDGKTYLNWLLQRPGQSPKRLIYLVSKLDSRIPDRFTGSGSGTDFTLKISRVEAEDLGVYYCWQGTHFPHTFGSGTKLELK
# notes: Mouse IgG1, kappa, from hybridoma; also called 631B2A2
# B3: 633B12C8 Fab (Fab, V domains shown)
# VH: B2 VH with Y27F, I34M, E43K, D54N, R59S, D82E
# VL: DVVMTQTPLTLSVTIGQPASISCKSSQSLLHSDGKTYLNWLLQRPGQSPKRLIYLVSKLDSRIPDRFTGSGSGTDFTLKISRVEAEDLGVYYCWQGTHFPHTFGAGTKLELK
# notes: Fab fragment; also called Fab fragment of ACI-7069-633B12-Ab1
# B4: ACI-7069-633B12-Ab1 (IgG2a variant) (antibody, V domains shown)
# VH: B2 VH with Y27F, I34M, E43K, D54N, R59S, D82E
# VL: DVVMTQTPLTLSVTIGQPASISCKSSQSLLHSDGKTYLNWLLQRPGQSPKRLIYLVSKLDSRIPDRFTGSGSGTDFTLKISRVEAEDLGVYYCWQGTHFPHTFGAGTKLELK
# notes: Recombinantly produced mouse IgG2a isotype; also called 633B12C8*; ACI-7069-633B12-Ab1 (IgG2a isotype)
# B5: ACI-7071-712A6-Ab1 (antibody, mouse IgG2c, V domains shown)
# VH: QVQLQQSGAELVKPGTSVKLSCKASAYTFTEYTIHWIKQKSGQGLEWIGWFHPENDNIKYNENFKDKATLTADRSSSTVYMELSRLTSEDSAVYFCAGTSGYGDYWGQGTTLTVSS
# VL: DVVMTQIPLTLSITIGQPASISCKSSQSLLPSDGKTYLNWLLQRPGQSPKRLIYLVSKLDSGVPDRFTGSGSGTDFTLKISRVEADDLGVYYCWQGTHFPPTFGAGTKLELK
# notes: Mouse IgG2c; also called 712A6B10
# Experiments:
# [1] = molecular target: T1, recombinant human full-length TDP-43 (TAR DNA-binding protein 43), soluble (human, UniProt Q13148 1-414); assay: SPR, immobilized soluble TDP-43
# T1 construct: Used on Luminex beads, coated on ELISA plates, and immobilized or injected in SPR; also called FL TDP-43; TDP-43 protein
# T1 sequence (Q13148 whole entry): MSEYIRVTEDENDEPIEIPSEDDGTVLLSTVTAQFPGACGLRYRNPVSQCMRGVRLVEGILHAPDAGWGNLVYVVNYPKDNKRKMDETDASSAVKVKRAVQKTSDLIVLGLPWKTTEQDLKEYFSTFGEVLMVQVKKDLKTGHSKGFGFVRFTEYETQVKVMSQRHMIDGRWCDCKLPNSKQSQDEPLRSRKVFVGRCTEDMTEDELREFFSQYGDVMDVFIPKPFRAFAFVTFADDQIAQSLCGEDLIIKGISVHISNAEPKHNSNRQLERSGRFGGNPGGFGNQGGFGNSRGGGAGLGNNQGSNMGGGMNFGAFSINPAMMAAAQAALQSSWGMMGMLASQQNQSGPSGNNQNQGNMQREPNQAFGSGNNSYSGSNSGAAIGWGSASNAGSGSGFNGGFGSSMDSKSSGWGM
# Method: (§1) Binding avidity to soluble or aggregated FL TDP-43 was evaluated by determing the dissociation constants (KD) using surface plasmon resonance (SPR; Biacore T200, GE Healthcare Life Sciences). Recombinant human soluble or aggregated FL TDP-43 were immobilized on a CM5 Series S sensor chip (GE Healthcare Life Sciences) by amine coupling. Soluble TDP-43 was immobilized at a concentration of 5 µg/ml in 10 mM sodium acetate (pH 4.5) with a flow rate of 5 µl/min for 420 seconds resulting in an immobilization level of 150 RU. Aggregated TDP-43 was immobilized at a concentration of 50 µg/ml in 10 mM sodium acetate (pH 4.5) with a flow rate of 5 µl/min for 840 seconds resulting in an immobilization level of 110 RU. Biotinylated TP-73 peptide (aa 181-190 of SEQ ID NO:1) was immobilized on a Series S Sensor Chip SA (GE Healthcare Life Sciences) at a concentration of 5 µg/ml in PBS-P⁺ with a flow rate of 5 µl/min for 30 seconds resulting in an immobilization level of 400 RU. […] The antibodies were injected at a flow rate of 50 µl/min for 90 seconds contact time and 700 seconds dissociation phase followed by three regenerations with 10 mM glycine-HCl pH 1.7. For the optimized SPR protocol the antibodies were diluted 3-fold starting from 300 nM and dilute down to 1.2 nM and injected for 300 seconds at 30 µl/min followed by 600 seconds dissociation. The surface was regenerated by one injection with 10 mM glycine-HCl pH 1.7. Results obtained from binding kinetics were double-referenced using a blank flow cell and a buffer cycle and were evaluated with a global 1:1 fitting model with RI. Avidities for 11 antibodies and two Fab fragments are depicted in Table 8. […] In addition, some antibodies show preferential binding to aggregated TDP-43 as compared with soluble TDP-43.
# [2] = molecular target: T2, recombinant human aggregated full-length TDP-43 (human, UniProt Q13148 1-414); assay: SPR, immobilized aggregated TDP-43
# T2 construct: also called aggregated TDP-43; aggregated FL TDP-43
# T2 sequence (Q13148 whole entry): as above
# Method: as §1
# [3] = molecular target: T1, recombinant human full-length TDP-43 …; assay: Luminex, FL TDP-43 on beads
# Method: Mice were euthanized and fusion with myeloma cells was performed using splenocytes from four individual mice. Screening for antibodies from the successfully fused hybridoma cell lines were performed as follows. Diluted (1:32) cell culture supernatants were analyzed using Luminex bead-based multiplex assay (Luminex, The Netherlands). Luminex beads were conjugated to FL TDP-43 and with capturing IgGs with anti-mouse IgG-Fc antibodies specific for the IgG1, IgG2a, IgG2b, IgG2c, and IgG3 subclasses (Jackson Immunoresearch, USA). Binding to beads conjugated to FL TDP-43 identified 386 hits derived from mice immunized with the FL TDP-43 liposomal vaccine.
# Luminex assays with serial dilution of antibodies were performed as described before to determine half maximal effective concentration (EC50) of binding of antibodies to FL TDP-43. In summary, all tested antibodies bind to full length TDP-43 with high affinity.
# [4] = molecular target: T1, recombinant human full-length TDP-43 …; assay: indirect ELISA, coated FL TDP-43
# Method: Antibody binding to human FL TDP-43 was determined using an indirect ELISA. ELISA plate coating with 1 µg/ml human FL TDP-43 was performed overnight in carbonate buffer at 4° C. Plates were washed with 0.05% Tween-20/PBS and then blocked with 1% bovine serum albumin (BSA) in 0.05% Tween-20/PBS for 1 hour at 37° C. Antibodies purified from hybridoma supernatants were then added in a 3-fold serial dilution starting at 1 µg/ml, and incubated for 2 hours at 37° C. after which the plates were washed. An AP-conjugated anti-mouse IgG secondary antibody (Jackson Immunoresearch Laboratories, United Kingdom) was added at 1/1000 dilution in 0.05% Tween-20/PBS for 1 hour at 37° C. After the final wash, plates were incubated with pNPP (Sigma-Aldrich, Switzerland) phosphatase substrate solution, and read at 405 nm using an ELISA plate reader (Tecan, Switzerland).
# [5] = molecular target: T1, recombinant human full-length TDP-43 …; assay: SPR, immobilized soluble TDP-43; Fab fragment, not whole antibody; soluble TDP-43 on the chip
# [6] = molecular target: T2, recombinant human aggregated …; assay: SPR optimized protocol, immobilized aggregated TDP-43
# [7] = molecular target: T1, recombinant human full-length TDP-43 …; assay: SPR optimized protocol, immobilized soluble TDP-43
Binder,Kd [1] [nM],koff [1] [s⁻¹],kon [1] [M⁻¹ s⁻¹],Kd [2] [nM],koff [2] [s⁻¹],kon [2] [M⁻¹ s⁻¹],EC50 [3] [nM],EC50 [4] [µg/mL],Kd [5] [nM],Kd [6] [nM],koff [6] [s⁻¹],kon [6] [M⁻¹ s⁻¹],Kd [7] [nM],koff [7] [s⁻¹],kon [7] [M⁻¹ s⁻¹]
B1,43.8,0.000682,15600,2.43,0.000274,113000,< 0.01,0.015,,,,,,,
B2,486,0.000774,1590,0.82,7.1e-05,86100,< 0.01,0.053,,,,,,,
B3,,0.000146,55100,6.9,0.000215,32200,,,2.8,,,,,,
B4,,,,,,,,,,0.18,1.32e-05,84000,0.22,1.08e-05,61800
B5,406,0.000545,1340,0.68,2.36e-05,34800,0.18,0.102,,,,,,,
